Experimental data published in publication PMC7687367 (Immunity, 2020).

Target: T1, SARS-CoV-2 RBD, His-tagged, for antibody binding studies (SARS-CoV-2, UniProt P0DTC2)
T1 construct: source: HEK293F, transient, purified from supernatant (Ni-NTA agarose)
Test: BLI
Settings: both partners purified

B1: COVA1-16 VH R100bS mutant (antibody, V domains shown)
VH: QVQLVQSGAEVKKPGASVKVSCKASGYTFTSYYMHWVRQAPGQGLEWMGIINSSGGSTSYAQKFQGRVTMTRDTSTSTVYMELSSLRSEDTAVYYCARPPRNYYDSSGYYQRAEYFQHWGQGTLVTVSS
VL: DIQLTQSPSSLSASVGDRVTITCQASQDISNYLNWYQQRPGKAPKLLIYDASNLETGVPSRFSGSGSGTDFTFTISSLQPEDIATYYCQQYDNPPLTFGGGTKLEIK
Q: Does B1 bind?
A: binds
